In test [1] the target is T1, mouse tenascin-C rCd4-His-FBG (rat; mouse, UniProt P05540 207-392, limits assumed).
T1 construct: domain: domains 3 and 4; C-terminal FBG fusion; biotinylated in the ELISA screen; also called Mu TNC; mouse TNC rCd4-His-FBG; not shown: 6His tag
T1 sequence (chain (part 1 of 2)): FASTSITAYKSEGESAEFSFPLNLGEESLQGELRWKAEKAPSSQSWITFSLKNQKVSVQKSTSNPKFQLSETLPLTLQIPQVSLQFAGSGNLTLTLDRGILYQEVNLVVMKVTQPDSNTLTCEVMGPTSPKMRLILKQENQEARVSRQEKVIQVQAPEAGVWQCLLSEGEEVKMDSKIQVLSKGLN
T1 sequence (chain (part 2 of 2)): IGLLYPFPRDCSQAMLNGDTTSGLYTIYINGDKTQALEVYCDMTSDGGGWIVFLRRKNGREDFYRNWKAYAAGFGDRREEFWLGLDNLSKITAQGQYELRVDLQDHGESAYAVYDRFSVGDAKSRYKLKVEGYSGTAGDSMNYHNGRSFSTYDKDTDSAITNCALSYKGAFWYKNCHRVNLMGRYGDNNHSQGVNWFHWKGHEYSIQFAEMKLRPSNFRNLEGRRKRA
In words: SPR steady state, captured Fab, 25 C. As for the experimental part:
(§1) Experiments were performed using a BIAcore T100 instrument with CM5 sensor chip according to the protocol provided with the Human Fab Capture Kit (GE, 28-9583-25). […] After reference signal subtraction, the data was fitted to a global 1:1 fit using the T100 BIAevaluation software (FIGS. 6 a-d).

Test [2] addresses T2, human tenascin-R rCd4-His-FBG (rat; human, UniProt P05540 207-392, limits assumed).
T2 construct: domain: domains 3 and 4; C-terminal FBG fusion; also called Hu TNR; human TNR rCd4-His-FBG; not shown: 6His tag
T2 sequence (chain (part 1 of 2)): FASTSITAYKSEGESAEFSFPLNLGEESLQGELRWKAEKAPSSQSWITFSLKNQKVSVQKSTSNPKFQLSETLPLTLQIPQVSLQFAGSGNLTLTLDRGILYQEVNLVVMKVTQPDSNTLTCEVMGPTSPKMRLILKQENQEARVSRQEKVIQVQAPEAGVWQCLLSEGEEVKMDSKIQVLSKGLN
T2 sequence (chain (part 2 of 2)): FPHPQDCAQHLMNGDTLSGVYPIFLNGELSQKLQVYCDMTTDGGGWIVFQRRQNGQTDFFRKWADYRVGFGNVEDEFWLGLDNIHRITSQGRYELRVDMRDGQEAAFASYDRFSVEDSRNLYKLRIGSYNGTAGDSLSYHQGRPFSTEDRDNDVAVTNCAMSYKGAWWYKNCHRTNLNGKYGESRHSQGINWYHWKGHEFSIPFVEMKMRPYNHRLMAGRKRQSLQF
Nature of the test: SPR steady state, captured Fab, 25 C. As for the experimental part:
as §1

The target in test [3] is T3, human tenascin-C rCd4-His-FBG (rat; human, UniProt P05540 207-392, limits assumed).
T3 construct: domain: domains 3 and 4; C-terminal FBG fusion; biotinylated in the ELISA and HTRF screens; also called Hu TNC; human TNC rCd4-His-FBG; not shown: 6His tag
T3 sequence (chain (part 1 of 2)): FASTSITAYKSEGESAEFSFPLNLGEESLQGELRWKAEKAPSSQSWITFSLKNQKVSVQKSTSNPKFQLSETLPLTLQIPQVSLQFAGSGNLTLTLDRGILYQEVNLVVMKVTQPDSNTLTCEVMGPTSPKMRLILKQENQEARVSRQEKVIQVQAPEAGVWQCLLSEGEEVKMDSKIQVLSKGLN
T3 sequence (chain (part 2 of 2)): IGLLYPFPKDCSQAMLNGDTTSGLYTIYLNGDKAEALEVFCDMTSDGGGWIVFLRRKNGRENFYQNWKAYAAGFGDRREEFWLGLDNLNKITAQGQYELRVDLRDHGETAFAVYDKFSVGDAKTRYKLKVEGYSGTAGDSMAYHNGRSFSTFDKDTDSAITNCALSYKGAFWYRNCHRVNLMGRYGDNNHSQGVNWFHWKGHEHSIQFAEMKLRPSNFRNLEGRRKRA
Nature of the test: SPR, captured Fab, 25 C. As for the experimental part:
as §1
On the technique in general: In SPR one partner is held on a chip, and binding of the other changes the refractive index at the surface.

Test [4] addresses T1, mouse tenascin-C rCd4-His-FBG. Nature of the test: SPR, captured Fab, 25 C. As for the experimental part:
as §1

Test [5] deals with T2, human tenascin-R rCd4-His-FBG. In words: SPR, captured Fab, 25 C. As for the experimental part: as §1
In another test the target is T4, Human FGB-rCd4.
T4 construct: Not the same construct as m1, which has the FBG at the C terminus; also called human TNC FBG-rCD4; human tenascin-C FBG-rCd4-His (FBG at the N terminus of the rat Cd4 tag); not shown: rat Cd4 (domains 3 and 4) tag, the C-terminal His6 tag and the vector-derived junction residues of pBIOCAM4
T4 chain: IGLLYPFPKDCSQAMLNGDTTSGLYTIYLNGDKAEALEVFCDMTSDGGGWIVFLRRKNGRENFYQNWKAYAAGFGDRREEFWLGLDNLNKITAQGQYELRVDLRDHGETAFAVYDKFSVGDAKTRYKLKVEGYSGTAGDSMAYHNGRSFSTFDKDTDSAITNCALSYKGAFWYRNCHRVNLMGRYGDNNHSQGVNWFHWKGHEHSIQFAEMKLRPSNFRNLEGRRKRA
In words: ELISA (DELFIA), antigen coated on the well, purified Fab at 50 nM, detected with anti-kappa or anti-lambda mAb and Europium-conjugated anti-mouse mAb. In general terms: In an ELISA, binding on a coated surface is turned into a signal by an enzyme label.

The target in another test is T5, human Fc-His-FBG (human, UniProt P24821 1974-2201).
T5 sequence: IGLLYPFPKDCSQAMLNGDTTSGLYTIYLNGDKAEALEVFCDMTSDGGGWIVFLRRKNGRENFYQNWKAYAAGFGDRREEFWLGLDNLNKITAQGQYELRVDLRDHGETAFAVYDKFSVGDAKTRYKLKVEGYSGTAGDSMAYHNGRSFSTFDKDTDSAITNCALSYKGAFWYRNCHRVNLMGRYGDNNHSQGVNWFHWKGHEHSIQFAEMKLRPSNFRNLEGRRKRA
In words: cell-based or functional assay.

Test [6] concerns the target T2, human tenascin-R rCd4-His-FBG. Nature of the test: SPR (BIAcore), Fab captured (23 nM) on anti-CL kappa / anti-CL lambda CM5 sensor chip, rCd4-FBG injected up to 2 µM; steady-state plot of response against concentration [Con't]. As for the experimental part: as §1

B1: Fab D8 (Fab, V domains shown)
VH: EVQLVQSGAEVKKPGASVKVSCKASGYTFTSYGISWVRQAPGQGLEWMGWISAYNGNTNYAQKLQGRVTMTTDTSTSTAYMELRSLRSDDTAVYYCARNQDSSSDYWGQGTLVTVSS
VL: DIQMTQSPASLPTSVGDRVTITCRASQYIQGFLNWYQQKPGKAPKLLIYDASNLETGVPSRFSGSGSGTDFTLTISSLQPEDFATYYCQQSYSTLQTFGQGTKVDIKR
notes: monomeric Fab
The Kd is the concentration at which binding is half-saturated. As usually defined, the koff is the first-order rate constant of dissociation. Low values mean slow dissociation, high ones fast dissociation. The term kon denotes the rate constant with which the complex forms. The low end stands for slower complex formation, the high end for faster complex formation. On to B1, for which the Kd in test [1] was found to be 41.2 nM; in test [2], 913 nM; in test [3], 8.49 nM; in test [4] it was 48.4 nM; in test [5] it was 1030 nM; in test [6], 1110 nM. Also, the koff came to 0.0131 s⁻¹ in test [3], 0.0716 s⁻¹ in test [4] and 0.57 s⁻¹ in test [5]. For the same molecule, the kon was determined as 1.54e+06 M⁻¹ s⁻¹ in test [3], 1.48e+06 M⁻¹ s⁻¹ in test [4] and 555000 M⁻¹ s⁻¹ in test [5]. Moreover, the binding result with Human FGB-rCd4 was “binds”. Moreover, the “IC50, inhibition of Fc-His-HuFBG-evoked IL-8 release, THP1-Blue cells” value with human Fc-His-FBG is 14.9 nM. The “IC50, inhibition of Fc-His-HuFBG-evoked alkaline phosphatase, THP1-Blue cells” value with human Fc-His-FBG worked out at 7.2 nM.

For the origin of these results see patent US20170306005A1 (NASCIENT, published 2017).
